What was measured:
[1] = target: T1, cysteine-rich domain (CRD) of human Fzd4 (UniProt Q9ULV1 40-161); experiment: SPR; apparent KD, average of four capture concentrations
T1 chain: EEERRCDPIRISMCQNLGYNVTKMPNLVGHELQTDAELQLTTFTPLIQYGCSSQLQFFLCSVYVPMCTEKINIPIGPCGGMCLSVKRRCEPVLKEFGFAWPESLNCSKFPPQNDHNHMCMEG

[2] = target: T1, cysteine-rich domain (CRD) of human Fzd4; experiment: BLI

Kd [1]: 729 nM | Kd [2]: 44.7 nM
B1: 4SD1-03_LALAPG (bispecific antibody)
heavy: EVQLVESGGGLVKPGGSLRLSCAASGFTFTNYAMSWVRQAPGKGLEWVSAISGSGGSTYYADSVKGRFTISRDDSKNTLYLQMNSLKTEDTAVYYCARATGFGTVVFDYWGQGTLVTVSSASTKGPSVFPLAPSSKSTSGGTAALGCLVKDYFPEPVTVSWNSGALTSGVHTFPAVLQSSGLYSLSSVVTVPSSSLGTQTYICNVNHKPSNTKVDKKVEPKSCDKTHTCPPCPAPEAAGGPSVFLFPPKPKDTLMISRTPEVTCVVVDVSHEDPEVKFNWYVDGVEVHNAKTKPREEQYNSTYRVVSVLTVLHQDWLNGKEYKCKVSNKALGAPIEKTISKAKGQPREPQVYTLPPSREEMTKNQVSLTCLVKGFYPSDIAVEWESNGQPENNYKTTPPVLDSDGSFFLYSKLTVDKSRWQQGNVFSCSVMHEALHNHYTQKSLSLSPGK
light: not shown
